This data set can be described thus: self-splicing fitness, log relative to wild type (ln ratio); higher = more splicing; Tetrahymena group I intron in knt gene, E. coli kanamycin selection, DiMSum; sequences stand for … in CUCUCU…GGAGGGAAAAGUUAUCAGGCAUGCACCUGGUAGCUAGUCUUUAAACCAAUAGAUUGCAUCGGUUUAAAAGGCAAGACCGUCAAAUUGCGGGAAAGGGGUCAACAGCCGUUCAGUACCAAGUCUCAGGGGAAACUUUGAGAUGGCCUUGCAAAGGGUAUGGUAAUAAGCUGACGGACAUGGUCCUAACCACGCAGCCAAGUCCUAAGUCAACAGAUCUUCUGUUGAUAUGGAUGCAGUUCACAGACUAAAUGUCGGUCGGGGAAGAUGUAUUCUUCUCAUAAGAUAUAGUCGGACCUCUCCUUAAUGGGAGCUAGCGGAUGAAGUGAUGCAACACUGGAGCCGCUGGGAACUAAUUUGUAUGCGAAAGUAUAUUGAUUAGUUUUGGAGUACUCGUGGUCG
The procedure, abridged:
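A randomised library covering all eight P1ex-region intron nucleotides was built with the intron in the knt kanamycin-resistance gene on pET-22b(+) and held in E. coli BL21(DE3). Cells were grown overnight at 37°C or 30°C on LB agar, with or without 25 μg/mL kanamycin, plus 100 μg/mL carbenicillin, 50 μM IPTG and 0.2% rhamnose, and pooled colonies were amplicon-sequenced on an Illumina HiSeq 2500. DiMSum fitness is the error-weighted combination of wild-type-normalised replicate fold changes, kanamycin versus none.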

± gives the uncertainty stated by the source.

For the sequence AAGAAGCAAUAUUACGAGUU, the “self-splicing fitness (ln)” value reads like this: (30 °C) -1.15 ± 0.079; (37 °C) -0.169 ± 0.11.
Turning to CAGGAGCAAUAUUACGUAGG, the “self-splicing fitness (ln)” value was -0.929 ± 0.1 (30 °C) and 0.172 ± 0.11 (37 °C).
As to CACUAGCAAUAUUACGUCUG, the “self-splicing fitness (ln)” value is, setting by setting: (30 °C) -0.516 ± 0.058; (37 °C) 0.214 ± 0.074.
In the case of UCCUAGCAAUAUUACGCAUU, the “self-splicing fitness (ln)” value by setting is: (30 °C) -3.92 ± 0.21; (37 °C) -1.81 ± 0.11.
With UUUUAGCAAUAUUACGAUCU, the “self-splicing fitness (ln)” value was -0.719 ± 0.13 (30 °C) and -0.72 ± 0.15 (37 °C).
The like results for CAGGAGCAAUAUUACGCGUC were, in that order, -4.22 ± 0.36 and -3.04 ± 0.4.
For CGCCAGCAAUAUUACGACCG, in that order: -0.693 ± 0.083 and -0.103 ± 0.12.
For GUAGAGCAAUAUUACGUCCA, in that order: -2.45 ± 0.28 and -0.739 ± 0.34.
For the sequence GGGAAGCAAUAUUACGCGAU, the “self-splicing fitness (ln)” value runs as follows: (30 °C) -3.63 ± 0.27; (37 °C) -0.798 ± 0.17.
For UCGCAGCAAUAUUACGAGAU, in that order: -3.01 ± 0.25 and -1.86 ± 0.25.
For GCAAAGCAAUAUUACGGUAG, in that order: -2.68 ± 0.14 and -3.34 ± 0.23.
For UCAGAGCAAUAUUACGCGUC, the “self-splicing fitness (ln)” value (30 °C) was -2.62 ± 0.18.
Take UGGUAGCAAUAUUACGAGCA: the “self-splicing fitness (ln)” value (30 °C) is -0.502 ± 0.15 and the “self-splicing fitness (ln)” value (37 °C) is -0.131 ± 0.21.
With CGUAAGCAAUAUUACGGGUG, the “self-splicing fitness (ln)” value is, setting by setting: (30 °C) -1.64 ± 0.057; (37 °C) -0.924 ± 0.057.
The like results for UUCGAGCAAUAUUACGGCCU were, in that order, -3.17 ± 0.33 and -2.84 ± 0.35.
UUAGAGCAAUAUUACGCUAC: the “self-splicing fitness (ln)” value (30 °C) was -2.9 ± 0.41.
Consider AUUAAGCAAUAUUACGAUUG, for which the “self-splicing fitness (ln)” value was -2.98 ± 0.15 (30 °C) and -1.86 ± 0.2 (37 °C).
As for ACGUAGCAAUAUUACGUGGA, the “self-splicing fitness (ln)” value reads like this: (30 °C) -3.46 ± 0.32; (37 °C) -2.2 ± 0.23.
Turning to GCGAAGCAAUAUUACGCACA, the “self-splicing fitness (ln)” value is, setting by setting: (30 °C) -1.08 ± 0.13; (37 °C) -0.906 ± 0.14.
Turning to AGAAAGCAAUAUUACGGUCU, the “self-splicing fitness (ln)” value (30 °C) is -1.11 ± 0.082 and the “self-splicing fitness (ln)” value (37 °C) was -0.58 ± 0.09.
On to UAAUAGCAAUAUUACGUCUA, for which the “self-splicing fitness (ln)” value is -0.149 ± 0.084 (30 °C) and 0.263 ± 0.087 (37 °C).
For the sequence UACCAGCAAUAUUACGAUUC, the “self-splicing fitness (ln)” value was -2.36 ± 0.21 (30 °C) and -1.55 ± 0.18 (37 °C).
Consider UUUGAGCAAUAUUACGCCGA, for which the “self-splicing fitness (ln)” value was -2.3 ± 0.42 (30 °C) and -1.61 ± 0.41 (37 °C).
For AACUAGCAAUAUUACGCCUC, in that order: -2.29 ± 0.3 and -0.975 ± 0.24.
For CCAGAGCAAUAUUACGCCGA, in that order: -2.35 ± 0.28 and -2.65 ± 0.44.
For GACCAGCAAUAUUACGACUU, in that order: 0.432 ± 0.065 and 0.163 ± 0.076.
As to CGGGAGCAAUAUUACGUUUU, the “self-splicing fitness (ln)” value reads like this: (30 °C) -2.19 ± 0.18; (37 °C) -1.53 ± 0.27.
For UACUAGCAAUAUUACGUUUU, the “self-splicing fitness (ln)” value is -3.49 ± 0.19 (30 °C) and -1.82 ± 0.15 (37 °C).
On to AAAUAGCAAUAUUACGUUGG, for which the “self-splicing fitness (ln)” value (30 °C) was -4.2 ± 0.22 and the “self-splicing fitness (ln)” value (37 °C) was -2.57 ± 0.21.
The like results for GGGCAGCAAUAUUACGACUG were, in that order, -2.84 ± 0.2 and -0.716 ± 0.27.
As to GCUAAGCAAUAUUACGGCCU, the “self-splicing fitness (ln)” value is -1.89 ± 0.095 (30 °C) and -0.893 ± 0.11 (37 °C).
Regarding ACUUAGCAAUAUUACGCCGA, the “self-splicing fitness (ln)” value reads like this: (30 °C) -2.94 ± 0.21; (37 °C) -1.35 ± 0.15.
For AAGAAGCAAUAUUACGAUCU, in that order: 0.00748 ± 0.089 and -0.373 ± 0.11.
With UUAGAGCAAUAUUACGUCGC, the “self-splicing fitness (ln)” value runs as follows: (30 °C) -3.05 ± 0.47; (37 °C) -1.76 ± 0.37.
Consider UCACAGCAAUAUUACGGUUC, for which the “self-splicing fitness (ln)” value is, setting by setting: (30 °C) -2.91 ± 0.11; (37 °C) -2.7 ± 0.19.
For AGCAAGCAAUAUUACGGUUC, in that order: -3.75 ± 0.17 and -3.42 ± 0.25.
The like results for AAGCAGCAAUAUUACGUUAA were, in that order, -1.76 ± 0.12 and -2.14 ± 0.14.
Consider UCAGAGCAAUAUUACGCACU, for which the “self-splicing fitness (ln)” value (30 °C) is -2.95 ± 0.44 and the “self-splicing fitness (ln)” value (37 °C) is -2.62 ± 0.48.
As for ACUGAGCAAUAUUACGUAAU, the “self-splicing fitness (ln)” value (30 °C) is -3.47 ± 0.23 and the “self-splicing fitness (ln)” value (37 °C) is -2.23 ± 0.22.
For AUCUAGCAAUAUUACGUGGC, the “self-splicing fitness (ln)” value is -2.58 ± 0.23 (30 °C) and -2.92 ± 0.31 (37 °C).
For GAUUAGCAAUAUUACGUGCU, in that order: -2.46 ± 0.18 and -1.26 ± 0.14.
On to GGUGAGCAAUAUUACGACAC, for which the “self-splicing fitness (ln)” value is, setting by setting: (30 °C) -0.5 ± 0.18; (37 °C) 0.114 ± 0.22.
As for UGUCAGCAAUAUUACGCUUG, the “self-splicing fitness (ln)” value is -1.09 ± 0.066 (30 °C) and -0.432 ± 0.089 (37 °C).
With ACGCAGCAAUAUUACGUUAG, the “self-splicing fitness (ln)” value reads like this: (30 °C) -4.1 ± 0.16; (37 °C) -2.46 ± 0.12.
The like results for GCACAGCAAUAUUACGUCCG were, in that order, -0.402 ± 0.09 and -0.201 ± 0.11.
As for GGUCAGCAAUAUUACGUGGG, the “self-splicing fitness (ln)” value is, setting by setting: (30 °C) -2.15 ± 0.089; (37 °C) -2.38 ± 0.15.
The like results for AGCAAGCAAUAUUACGGUGA were, in that order, -1.88 ± 0.11 and -0.835 ± 0.093.
Consider CCUAAGCAAUAUUACGUAUC, for which the “self-splicing fitness (ln)” value reads like this: (30 °C) -3.83 ± 0.32; (37 °C) -2.33 ± 0.26.
Take UCGGAGCAAUAUUACGUAAU: the “self-splicing fitness (ln)” value (37 °C) is -1.86 ± 0.33.
As to AGAUAGCAAUAUUACGUCUA, the “self-splicing fitness (ln)” value is, setting by setting: (30 °C) -0.934 ± 0.24; (37 °C) -0.474 ± 0.2.
The like results for GAACAGCAAUAUUACGAAUU were, in that order, -1.15 ± 0.088 and -0.293 ± 0.1.
Regarding UCACAGCAAUAUUACGCUAG, the “self-splicing fitness (ln)” value is, setting by setting: (30 °C) -2.91 ± 0.13; (37 °C) -1.49 ± 0.12.
The like results for GCCGAGCAAUAUUACGCAUG were, in that order, -3.99 ± 0.3 and -2.4 ± 0.22.
For UUCCAGCAAUAUUACGUAAC, in that order: -2.44 ± 0.25 and -2.08 ± 0.38.
Take AGCAAGCAAUAUUACGCAUC: the “self-splicing fitness (ln)” value was -2.72 ± 0.093 (30 °C) and -3.73 ± 0.24 (37 °C).
In the case of CAGGAGCAAUAUUACGCGAU, the “self-splicing fitness (ln)” value (30 °C) was -3.06 ± 0.28.
As for CGGGAGCAAUAUUACGUCUC, the “self-splicing fitness (ln)” value (30 °C) was -2.33 ± 0.24.
For GCUUAGCAAUAUUACGACAU, the “self-splicing fitness (ln)” value is, setting by setting: (30 °C) -1.26 ± 0.014; (37 °C) -0.365 ± 0.033.
Take CAGUAGCAAUAUUACGAAGC: where the note is “37 °C”, the “self-splicing fitness (ln)” value was -3.05 ± 0.32.
Regarding UCGUAGCAAUAUUACGCAUG, the “self-splicing fitness (ln)” value reads like this: (30 °C) -2.33 ± 0.18; (37 °C) -0.84 ± 0.16.
The like results for UUAAAGCAAUAUUACGCUCG were, in that order, 0.194 ± 0.12 and 0.654 ± 0.15.
On to UUUGAGCAAUAUUACGGCGC, for which the “self-splicing fitness (ln)” value (30 °C) is -2.21 ± 0.35.
Take AUAGAGCAAUAUUACGCCCU: the “self-splicing fitness (ln)” value is, setting by setting: (30 °C) -0.756 ± 0.19; (37 °C) -0.622 ± 0.37.
For AAUGAGCAAUAUUACGAGGG, the “self-splicing fitness (ln)” value was -4.5 ± 0.29 (30 °C) and -1.98 ± 0.17 (37 °C).
As for CAGAAGCAAUAUUACGGCGC, the “self-splicing fitness (ln)” value (30 °C) is -3.28 ± 0.32 and the “self-splicing fitness (ln)” value (37 °C) was -1.6 ± 0.31.
GCAAAGCAAUAUUACGCGCU: the “self-splicing fitness (ln)” value (30 °C) was -3.48 ± 0.23 and the “self-splicing fitness (ln)” value (37 °C) was -2.01 ± 0.18.
The like results for CUCAAGCAAUAUUACGCAUC were, in that order, -3.63 ± 0.23 and -2.3 ± 0.25.
As for GGUGAGCAAUAUUACGGAGG, the “self-splicing fitness (ln)” value (30 °C) was -1.6 ± 0.27.
Regarding UCGCAGCAAUAUUACGCGCA, the “self-splicing fitness (ln)” value was -0.382 ± 0.091 (30 °C) and -0.601 ± 0.078 (37 °C).
CGGUAGCAAUAUUACGAGGC: the “self-splicing fitness (ln)” value (37 °C) is -0.808 ± 0.29.
Take GAUAAGCAAUAUUACGGUGC: the “self-splicing fitness (ln)” value reads like this: (30 °C) -2.8 ± 0.19; (37 °C) -2.17 ± 0.22.
As for UGACAGCAAUAUUACGCCUC, the “self-splicing fitness (ln)” value is -3.41 ± 0.26 (30 °C) and -3.24 ± 0.47 (37 °C).
For ACAUAGCAAUAUUACGAAUU, in that order: -3.3 ± 0.2 and -1.26 ± 0.14.
Consider UUCGAGCAAUAUUACGUCCU, for which the “self-splicing fitness (ln)” value was -3.78 ± 0.47 (30 °C) and -2.4 ± 0.41 (37 °C).
CGCAAGCAAUAUUACGGCUU: the “self-splicing fitness (ln)” value runs as follows: (30 °C) -2.5 ± 0.14; (37 °C) -2.28 ± 0.2.
As for AGCCAGCAAUAUUACGGCAU, the “self-splicing fitness (ln)” value (30 °C) was -1.31 ± 0.099 and the “self-splicing fitness (ln)” value (37 °C) is -1.15 ± 0.12.
The like results for UUGUAGCAAUAUUACGCAUC were, in that order, -3.41 ± 0.34 and -3.19 ± 0.43.
The like results for UCACAGCAAUAUUACGGGUC were, in that order, -3.67 ± 0.16 and -2.79 ± 0.14.

The values are drawn from the supplement of paper PMC7877785.
